Data reported in patent US6710030B1, “Contortrostain (CN) and methods for its use in preventing metastasis and other conditions” (University of Southern California, priority 1993, dated 2004).
Read-outs that look alike come from different tables or passages of the source.

Assays:
OVCAR-5 cells = assay: Adhesion of OVCAR-5 cells to vitronectin coated plate; format: cell-based, human
Excerpt: FIG. 21. CN and other antagonists of αvβ5 inhibits adhesion of OVCAR-5 cells to vitronectin. Adhesion of cancer cells to the matrix is one of the critical steps of cancer spreading and metastasis. It is well established that integrin αvβ5 mediates adhesion of cells to vitronectin.

[1] = test system: human platelet rich plasma; assay: ADP-induced platelet aggregation in human platelet rich plasma; format: cell-based
Experimental: Column fractions obtained during purification were assayed for activity using fresh human platelet rich plasma (PRP) prepared from blood obtained from human volunteers who had had no medication for at least two weeks. Blood (36 ml) was drawn into 4 ml of 0.1 M citrate and centrifuged at 150×g for 20 minutes. The supernatant, PRP, was removed and the remaining blood was centrifuged at 10,000 RPM to obtain platelet poor plasma (PPP). Platelet counts were adjusted to 250,000 platelets/μl using a Coulter counter. A Helena four channel aggregometer was used to monitor platelet aggregation. Inhibition of ADP-induced platelet aggregation was monitored at 37° C. by adding venom fractions one minute prior to the addition of ADP (10-20 μM final concentration). […] Rabbit and canine PRP was prepared by the same procedure and used in the studies described below.
CN inhibited ADP-induced platelet aggregation in human, canine, and rabbit PRPs (FIG. 6). Empty circles represent human platelet rich plasma, solid circles represent canine PRP, and empty triangles represent rabbit PRP. Varying concentration of CN were preincubated for one minute with PRP prior to the addition of ADP.

MDA-MB-435 cells = assay: Phosphotyrosine immunoblot, MDA-MB-435 cells; format: cell-based, human
Experimental: Cell culture, preparation and stimulation—T24 cells were maintained in RPMI 1640 medium containing 5% fetal bovine serum, and MDA-MB-435 and 293 cells were maintained in Dulbecco's modified Eagle's medium with 10% serum at 37° C. in 5% CO2. Cells were washed with phosphate-buffered saline (PBS) and starved in the appropriate serum-free medium for 6 h at 37° C. Cells were detached by brief treatment with 0.05% trypsin/0.02% EDTA in PBS and collected by centrifugation, resuspended in soybean trypsin inhibitor (1 mg/ml in serum-free medium), and washed in 2% bovine serum albumin/serum-free medium. Cells were maintained in suspension for 1 h in 2% bovine serum albumin/serum-free medium at 37° C. with end-over-end agitation. Quiescent cells (3×10^6/ml) were treated with disintegrins or other reagents while in suspension, or were allowed to adhere to Matrigel (Becton Dickinson, Bedford, Mass.) diluted 1:100 with serum-free medium during treatment.
Lysate preparation and immunoprecipitation—Suspended and adherent cells were washed twice with cold PBS and lysed in cold lysis buffer (50 mM Tris, pH 8.0, 150 mM NaCl, 1% Nonidet P-40, 0.5% deoxycholate, 0.1% SDS, protease inhibitor cocktail, 1 mM sodium pyrophosphate, 1 mM sodium orthovanadate, 50 mM sodium fluoride). After 10-15 min incubation on ice, insoluble material was removed by centrifugation at 14,000 RPM in a microcentrifuge for 15 min. Supernatants were collected and total protein concentrations standardized by the BCA protein assay (Pierce, Rockford, Ill.). Immunoprecipitation was carried out by incubating whole cell lysates (200 μg total protein) with 1.25 μg anti-FAK or anti-CAS mAb 4-6 h at 4° C. followed by 20 μl protein G-agarose overnight at 4° C. Immunoprecipitates were washed 4 times in lysis buffer without inhibitors and dissociated by adding SDS-PAGE sample buffer and boiling 5 min. Whole cell lysates (30 μg total protein) or immunoprecipitates were resolved by 7.5% SDS-polyacrylamide gel electrophoresis and transferred to nitrocellulose membranes.
Immunoblotting—Membranes were blocked with 5% nonfat milk/Tris-buffered saline/0.1% Tween 20 (blocking buffer) 1 h at room temperature or overnight at 4° C. Primary antibody incubations were performed in blocking buffer for 1 h at room temperature. After washing in Tris-buffered saline/0.1% Tween 20, membranes were incubated with horseradish peroxidase-conjugated secondary antibody in blocking buffer 1 h at room temperature. Membranes were washed extensively. Inimunoblots were developed using Super Signar West Pico Chemiluminescent Substrate from Pierce. Densitometry was performed using UN-SCAN-IT™, software (Silk Scientific, Orem, Utah))

[2] = test system: c-Ha-ras transfected rat embryo (4R) cells; settings: cited from earlier work

B1: contortrostatin (protein)
chain: DAPANPCCDAATCKLTTGSQCADGLCCDQCKFMKEGTVCRRARGDDLDDYCNGISAGCPRNPFHA
For B1, the “adhesion of OVCAR-5 cells to vitronectin” value (OVCAR-5 cells) was “inhibited”, the “IC50 of ADP-induced human platelet aggregation” value ([1]; 10 μM ADP, preincubated one minute) was 0.73 µg/mL and the “platelet aggregation inhibitory activity after reduction of the disulfide bonds” value ([1]; even at concentrations ten times the IC50) was “completely eliminated platelet aggregation inhibitory activity”. The “concentration giving maximal tyrosine phosphorylation” value (MDA-MB-435 cells; suspended cells, 10 min) was 10 nM, the “lowest concentration increasing tyrosine phosphorylation of FAK and CAS” value (MDA-MB-435 cells; tumor cells, soluble contortrostatin) was 1 nM and the “Inhibition of 4R cell binding to fibronectin” value ([2]; CN at 1 μg/ml) was 46%. The “Inhibition of 4R cell binding to fibronectin” value ([2]; CN at 5 μg/ml) was 88%.
